Patent publication US5149780A, “Peptides and antibodies that inhibit integrin-ligand binding” (The Scripps Research Institute, priority 1988, dated 1992)

What was measured:
[1] = biological target: T1, alpha subunit (GPIIb) (Homo sapiens, UniProt P05106+P08514); assay: Chemical crosslinking of 125I-Fn-7 to platelets with BS3, SDS-PAGE and autoradiography; format: binding; details: thrombin-stimulated platelets, 20 μM peptide, 45 min at 22° C., BS3 0.2 mM
T1 construct: The radiolabeled peptide was then added to 6×10^8 cells/ml stimulated or nonstimulated platelets; endogenous in cells; host or cells: human platelets (thrombin-stimulated), gel-filtered from fresh blood

[2] = biological target: T2, beta subunit (GPIIIa) (Homo sapiens, UniProt P05106+P08514); assay: as above; format: binding; details: thrombin-stimulated platelets, 20 μM peptide, 45 min at 22° C., BS3 0.2 mM
T2 construct: endogenous in cells; host or cells: human platelets (thrombin-stimulated or nonstimulated), gel-filtered from fresh blood
Protocol: FIG. 2 illustrates the results of the crosslinking of an RGD peptide to discrete sites in the beta subunit (GPIIIa) of an Integrin adhesion receptor. The ^125 I-labeled RGD peptide, Fn-7 (20 μM), was bound to platelet (6×10^8 /ml) for 45 min at 22° C., and crosslinked with BS^3 (0.2 mM). The fragmentation patterns after proteolysis were analyzed by SDS-PAGE [Laemmli, Nature. 227:680 (1970)] and autoradiography. […] Lanes 2-7, GPIIIa:Fn-7 bands were excised from gels, subjected to proteolysis and then analyzed by SDS-PAGE (15% gels, reducing conditions). For lanes 2-5, GPIIIA:Fn-7 bands were excised and digestions with V-8 protease were performed within the gel slices as described in Cleveland et al., J. Biol. Chem. 252:1102 (1977).
Platelets were isolated from fresh human blood collected into acid/citrate/dextrose by differential centrifugation followed by gel filtration on Sepharose 2B in divalent ion-free Tyrode's buffer, pH 7.3, containing 0.1% bovine serum albumin. See, Marguerie et al., J. Biol. Chem. 225:154-161 (1980). […]
The cell-bound ligand was recovered by centrifugation through 20% sucrose, and the cells were extracted in PBS containing 1% Nonidet P40 and 10 mM N-ethylmaleimide (Sigma). […] The cross-linked samples were analyzed by electrophoresis (SDS-PAGE) on polyacrylamide vertical slab gels in the buffer system of Laemmli, Nature, […] (1970). […]

Sequence: KYGRRGDS [Fn-7, RGD-peptide with a lysine to facilitate crosslinking and a tyrosine for radioiodination]
- crosslinking of 125I-Fn-7 to the alpha subunit (GPIIb) [1]: more minor crosslinking
- crosslinking of 125I-Fn-7 to the beta subunit (GPIIIa) [2]: predominance
